Biological target: T1, untagged full-length human 14-3-3ζ (human), P63104
T1 chain: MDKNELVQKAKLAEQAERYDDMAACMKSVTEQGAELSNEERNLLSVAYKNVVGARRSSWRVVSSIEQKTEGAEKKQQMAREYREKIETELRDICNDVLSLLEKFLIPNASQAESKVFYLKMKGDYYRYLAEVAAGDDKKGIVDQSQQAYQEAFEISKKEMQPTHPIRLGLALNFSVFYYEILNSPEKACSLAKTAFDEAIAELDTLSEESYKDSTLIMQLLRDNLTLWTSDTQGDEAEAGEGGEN
Assay: SEC
Details: remark: other sources report otherwise

stoichiometry N: 2
B1: untagged full-length human 14-3-3ζ, P63104 1-245 (natural protein)
chain: MDKNELVQKAKLAEQAERYDDMAACMKSVTEQGAELSNEERNLLSVAYKNVVGARRSSWRVVSSIEQKTEGAEKKQQMAREYREKIETELRDICNDVLSLLEKFLIPNASQAESKVFYLKMKGDYYRYLAEVAAGDDKKGIVDQSQQAYQEAFEISKKEMQPTHPIRLGLALNFSVFYYEILNSPEKACSLAKTAFDEAIAELDTLSEESYKDSTLIMQLLRDNLTLWTSDTQGDEAEAGEGGEN

Source: publication PMC7863765
